Results on 18 molecules are retold here after US20190119366A1 (ADC THERAPEUTICS, published 2019).

The chains are these.
T1: recombinant human KAAG1 (Kidney associated antigen 1) (human, UniProt Q9UBP8 1-84)
T1 construct: also called KAAG1 protein
T1 sequence: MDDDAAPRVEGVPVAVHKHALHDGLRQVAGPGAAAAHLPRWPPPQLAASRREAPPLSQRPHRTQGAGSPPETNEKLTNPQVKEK

B1: 3D1 anti-KAAG1 antibody (antibody, V domains shown)
VH: EVQLQESGPDLVKPSQSLSLTCTVTGFSITSGYGWHWIRQFPGDKLEWMGYISFNGDYNYNPSLKSRISITRDTSKNQFFLQLSSVTTEDTATYYCASSYDGLFAYWGQGTLVTVSA
VL: DIKMTQSPSSMYASLGERVTITCKASQDIHTYLNWFQQKPGKSPETLIYRANRLVDGVPSRFSGSGSGQDYSLTISSLEYEDMGIYYCLQYDEFPLTFGAGTKLELK
notes: Variable regions only; Isolated from a Fab library
B2: 3C2 anti-KAAG1 antibody (antibody, V domains shown)
VH: DVQLQESGPDLVKPSQSLSLTCTVTGFSITSGYGWHWIRQFPGNKLEWMGYISFNGDSNYNPSLKSRISITRDTSKNQFFLQLNSVTSEDTATYYCASSYDGLFAYWGQGPLVTVSA
VL: DIQMTQSPSSMYASLGERVTLTCKASQDIHNYLNWFQQKPGKSPKTLIHRANRLVAGVPSRFSGSGSGQDYSLTISSLEYEDLGIYYCLQYDAFPLTFGAGTKLELK
notes: as for B1
B3: 3D3 anti-KAAG1 antibody (antibody, V domains shown)
VH: EVQLQQSVAELVRPGASVTLSCKASGYIFTDYEIHWVKQTPVHGLEWIGVIDPETGNTAFNQKFKGKATLTADISSSTAYMELSSLTSEDSAVYYCMGYSDYWGQGTTLTVSS
VL: DIVMTQSPSSLAVSIGQKVTMNCKSSQSLLNSNFQKNFLAWYQQKPGQSPKLLIYFASTRESSIPDRFIGSGSGTDFTLTISSVQAEDLADYFCQQHYSTPLTFGAGTKLELK
B4: 3G12 anti-KAAG1 antibody (antibody, V domains shown)
VH: EVQLQQSVAELVRPGASVTVSCKASGYIFTDYEIHWVKQTPAHGLEWIGVIDPETGNTAFNQKFKGKATLTADISSSTAYMELSSLTSEDSAVYYCMGYSDYWGQGTTLTVSS
VL: DIVMTQSPKFMSTSVGDRVSITCKASQDVGTAVAWYQQKPGQSPELLIYWTSTRHTGVPDRFSGSGSGTDFTLTISSVQAEDLADYFCQQHYSIPLTFGAGTKLELR
notes: as for B1
B5: 3F4 anti-KAAG1 antibody (antibody, V domains shown)
VH: EVQLQQSGAELVRPGASVTLSCKASGYTFTDYEIHWVKQTPVHGLEWIGVIDPETGSTAYNQKFKGKATLTADKASSTAYMELSSLTSEDSAVYYCMGYSDYWGQGTTLTVSS
VL: DIVMTQSPSSLTVTAGEKVTMSCKSSQSLLNTSNQKNYLAWYQQKPGQSPKLLVYFASTRASGVPDRFIGSGSGTDFTLTISSVQAEDLADYFCQQHYSTPLTFGAGTKLELK
notes: as for B1
B6: 3C3 anti-KAAG1 antibody (antibody, V domains shown)
VH: EVQLQQSVAEVVRPGASVTLSCKASGYTFTDYEIHWVKQTPVHGLEWIGVIDPETGVTAYNQRFRDKATLTTDKSSSTAYMELSSLTSEDSAVYFCMGYSDYWGQGTTLTVSS
VL: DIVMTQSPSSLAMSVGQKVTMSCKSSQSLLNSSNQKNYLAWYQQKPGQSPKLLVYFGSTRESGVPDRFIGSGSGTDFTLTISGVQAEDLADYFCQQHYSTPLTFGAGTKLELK
notes: as for B1
B7: 3F10 anti-KAAG1 antibody (antibody, V domains shown)
VH: EVQLQQSVAELVRPGAPVTLSCKASGYTFTDYEVHWVKQTPVHGLEWIGVIDPETGATAYNQKFKGKATLTADKSSSAAYMELSRLTSEDSAVYYCMSYSDYWGQGTTLTVSS
VL: DIVMTQSPSSLTMSVGQKVTMSCKSSQSLLNTSNQLNYLAWYQQKPGQSPKLLVYFASTTESGVPDRFIGSGSGTDFTLTISSVQAEDLADYFCQQHYSTPLTFGAGTKLELK
notes: as for B1
B8: 3G5 anti-KAAG1 antibody (antibody, V domains shown)
VH: QVQLQQPGAELVRPGASVTLSCKASGYTFTDYEIHWVKQTPVHGLEWIGVLDPGTGRTAYNQKFKDKATLSADKSSSTAYMELSSLTSEDSAVYYCMSYSDYWGPGTTLTVSS
VL: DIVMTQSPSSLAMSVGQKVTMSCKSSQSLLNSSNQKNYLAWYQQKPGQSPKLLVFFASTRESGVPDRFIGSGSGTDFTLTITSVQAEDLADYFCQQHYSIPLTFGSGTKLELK
notes: as for B1
B9: 3B8 anti-KAAG1 antibody (antibody, V domains shown)
VH: EVQLQQSGAELVRPGASVTLSCKASGYTFTDYEIHWVKQTPVHGLEWIGVIDPETGDTAYNQNFTGKATLTADKSSSTAYMELSSLTSEDSAVYYCMGYADYWGQGTTLTVSS
VL: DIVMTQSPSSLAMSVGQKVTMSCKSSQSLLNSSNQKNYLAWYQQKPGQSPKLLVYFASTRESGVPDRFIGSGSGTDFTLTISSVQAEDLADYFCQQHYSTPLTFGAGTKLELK
notes: as for B1
B10: 3B11 anti-KAAG1 antibody (antibody, V domains shown)
VH: EVQLQQSVAELVRPGASVTLSCKASGYTFTDYEMHWVKQTPVRGLEWIGVIDPATGDTAYNQKFKGKATLTADKSSSAAFMELSSLTSEDSAVYYCMGYSDYWGQGTTLTVSS
VL: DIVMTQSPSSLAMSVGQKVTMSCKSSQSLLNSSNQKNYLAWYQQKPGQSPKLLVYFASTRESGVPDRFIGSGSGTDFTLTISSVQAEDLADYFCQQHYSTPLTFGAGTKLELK
notes: as for B1
B11: 3B1 anti-KAAG1 antibody (antibody, V domains shown)
VH: QVQLQQPGAELVRPGASVTLSCKASGYTFTDYEIHWVKQTPVHGLEWIGVIDPETGGTAYNQKFKGKATLTTDKSSSTAYMELRSLTSEDSAVYYCMGYSDYWGQGTTLTVSS
VL: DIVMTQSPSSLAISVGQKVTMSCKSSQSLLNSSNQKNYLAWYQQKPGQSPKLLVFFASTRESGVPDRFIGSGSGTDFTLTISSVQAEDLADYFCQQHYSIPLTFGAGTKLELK
notes: as for B1
B12: 3F7 anti-KAAG1 antibody (antibody, V domains shown)
VH: QAYLQQSGAELVRPGASVTLSCKASGYTFTDYEIHWVKQTPVHGLEWIGVIDPETGDTAYNQKFKDKATLTADKASSTAYMELSSLTSEDSAVYYCMGYSDYWGQGTTLTVSS
VL: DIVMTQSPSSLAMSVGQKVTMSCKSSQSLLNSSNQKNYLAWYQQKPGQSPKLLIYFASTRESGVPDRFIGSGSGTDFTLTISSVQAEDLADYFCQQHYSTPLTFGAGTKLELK
notes: as for B1
B13: 3G8 anti-KAAG1 antibody (antibody, V domains shown)
VH: QVQLKQSGAELVRPGASVTLSCKASGYTFTDYEVHWVKQTPVHGLEWIGVIDPATGDTAYNQKFKGKATLTADKSSSTAYMEVSSLTSEDSAVYYCMGYSDYWGQGTTLTVSS
VL: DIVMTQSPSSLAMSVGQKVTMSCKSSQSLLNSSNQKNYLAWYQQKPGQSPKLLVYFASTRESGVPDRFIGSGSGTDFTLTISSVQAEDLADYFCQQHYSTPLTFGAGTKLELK
notes: as for B1
B14: 3E12 anti-KAAG1 antibody (antibody, V domains shown)
VH: QVQLQQSEAELVKPGASVKLSCKASGYTFTDYEIHWVKQTPVHGLEWIGVIDPETGDTAYNQKFKGKATLTADKSSSTAYMELSRLTSEDSAVYYCMGHSDYWGQGTTLTVSS
VL: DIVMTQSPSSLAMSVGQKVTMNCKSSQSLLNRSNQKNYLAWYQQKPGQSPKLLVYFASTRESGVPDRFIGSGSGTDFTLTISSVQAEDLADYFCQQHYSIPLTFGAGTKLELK
notes: as for B1
B15: 3E9 anti-KAAG1 antibody (antibody, V domains shown)
VH: EVQLQQSGAELVRPGASATLSCKASGYTFTDYEMHWVKQTPVHGLEWIGVIDPETGSTAYNQKFKGKATLTADKSSSTAYMELSSLTSEDSAVYYCMGYADYWGQGTTLTVSS
VL: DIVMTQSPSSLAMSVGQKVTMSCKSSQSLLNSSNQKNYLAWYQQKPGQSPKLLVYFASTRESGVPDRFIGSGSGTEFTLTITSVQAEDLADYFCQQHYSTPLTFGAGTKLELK
notes: as for B1
B16: 4A2 anti-KAAG1 antibody (antibody, V domains shown)
VH: QVKLQQSGTELVRPGASVTLSCKASGYKFTDYEMHWVKQTPVHGLEWIGGIDPETGGTAYNQKFKGKAILTADKSSTTAYMELRSLTSEDSAVYYCISYAMDYWGQGTSVTVSS
VL: DIVMTQSPSSLAMSVGQKVTMNCKSSQSLLNNSNQKNYLAWYQQKPGQSPKLLLYFASTRESGVPDRFIGSGSGTYFTLTISSVQAEDLADYFCQQHYSTPLTFGAGTKLDLK
notes: as for B1
B17: 3E6 anti-KAAG1 antibody (antibody, V domains shown)
VH: QVQLQQSGAELVRPGASVTLSCKASGYTFSDYEMHWVKQTPVHGLEWIGGIDPETGDTVYNQKFKGKATLTADKSSSTAYMELSSLTSEDSAVYYCISYAMDYWGQGTSVTVSS
VL: DIQMTQSPSSMYASLGERVTLTCKASQDIHNYLNWFQQKPGKSPKTLIHRANRLVAGVPSRFSGSGSGQDYSLTISSLEYEDLGIYYCLQYDAFPLTFGAGTKLELK
notes: as for B1
B18: chimeric 3A4 anti-KAAG1 antibody (mouse variable regions, human IgG1/kappa constant regions) (antibody, V domains shown)
VH: QIQLVQSGPEMVKPGASVKMSCKASGYTFTDDYMSWVKQSHGKSLEWIGDINPYNGDTNYNQKFKGKAILTVDKSSSTAYMQLNSLTSEDSAVYYCARDPGAMDYWGQGTSVTVSS
VL: DVVMTQTPLSLAVSLGDQASISCRSSQSLLHSNGNTYLEWYLQKPGQSPKLLIHTVSNRFSGVPDRFSGSGSGTDFTLKISRVEAEDLGVYYCFQGSHVPLTFGAGTRLELKR
notes: It is treated here as the same molecule; also called LcHc; murine 3A4 (LcHc)

The first assay has as its target T1, recombinant human KAAG1 (Kidney …). Kind of assay: not described; list of antibodies generated.
B1: the binding result is “binds”.

As to B2, the binding result is “binds”. The same measure, in the same setting: the entry for B3 is “binds”; for B4 it is “binds”; for B5 it is “binds”.

Take B6: the binding result is given as “binds”. For the molecule B7, the binding result is reported as “binds”. Turning to B8, the binding result was “binds”. Take B9: the binding result is given as “binds”.

Consider B10, for which the binding result is “binds”. Take B11: the binding result is “binds”. For B12, the binding result was “binds”. In the case of B13, the binding result is recorded as “binds”.

With B14, the binding result was “binds”. Same read-out and setting: the result for B15 reads “binds”; that for B16, “binds”.

With B17, the binding result is given as “binds”.

For the next assay the target is unchanged. Kind of assay: SPR (BioRad ProteOn XPR36): antibody captured on an anti-human IgG Fc surface, KAAG1 injected as analyte, 1:1 Langmuir fit. On the procedure:
Immediately after the activation, a 13 μg/mL solution of anti-human IgG Fc fragment specific in 10 mM NaOAc pH 4.5 was injected in the analyte direction at a flow rate of 25 μL/min until approximately 8000 resonance units (RUs) were immobilized. Remaining active groups were quenched by a 300 s injection of 1M ethanolamine at 30 μL/min in the analyte direction, and this also ensures mock-activated interspots are created for blank referencing. The screening of the 3A4 variants for binding to KAAG1 occurred in two steps: an indirect capture of 3A4 variants from cell supernatant onto the anti-human IgG Fc fragment specific surface in the ligand direction(vertical) followed by a KAAG1 injection in the analyte direction. Firstly, one buffer injection for 30 s at 100 uL/min in the ligand direction was used to stabilize the baseline. […] Four to five 3A4 variants along with wild-type 3A4 were simultaneously injected in individual ligand channels for 240 s at flow 25 μL/min. […] The first ligand channel was left empty to use as a blank control if required. This 3A4 capture step was immediately followed by two buffer injections in the analyte direction to stabilize the baseline, and then the gel filtration purified KAAG1 was injected. For a typical screen, five KAAG1 concentrations (8, 2.66, 0.89, 0.29, and 0.098 nM) and buffer control were simultaneously injected in individual analyte channels at 50 μL/min for 120 s with a 600s dissociation phase, resulting in a set of binding sensorgrams with a buffer reference for each of the captured 3A4 variants. The anti-human IgG Fc fragment specific—3A4 complexes were regenerated by a 18 s pulse of 0.85% phosphoric acid for 18 s at 100 μL/min to prepare the anti-human IgG Fc fragment specific surface for the next injection cycle. Sensorgrams were aligned and double-referenced using the buffer blank injection and interspots, and the resulting sensorgrams were analyzed using ProteOn Manager software v3.0.
As a reminder, the Kd is the equilibrium constant for the complex coming apart. Broadly, the koff is a measure of how fast the partners let go of each other. By kon is commonly meant a measure of how fast the partners come together. Consider B18, for which the Kd is 0.016 nM, the koff stood at 0.000121 s⁻¹ and the kon is 7.72e+06 M⁻¹ s⁻¹.
